Experimental data published in article PMC8871097.

Tests used:
[1] = target: Pea seed ferritin purified from pea seed milk boiled for 5 min (Pisum sativum (pea)); experiment: native gel or EMSA; Native-PAGE, 5-20% gradient gel, samples not boiled, 180 V, 4 °C, Coomassie brilliant blue R-250; assembly state of the purified ferritin
[2] = target: Pea seed ferritin purified from pea seed milk boiled for 10 min (Pisum sativum (pea)); experiment: as above

Row | stoichiometry N [1] | stoichiometry N [2] | Binder
1 | 24 | – | Pea seed ferritin purified from pea seed milk boiled for 5 min (natural protein, modifications not checked) TTAPLTGVIFEPFEEVKKDYLAVPSVPLVSLARQNFADECESVINEQINVEYNASYVYHSLFAYFDRDNVALKGFAKFFKESSEEHREHAEKLMKYQNTRGGRVVLHPIKDVPSEFEHVEKGDALYAMELALSLEKLTNEKLLNVHSVAERNNDLEMTHFIEGEYLAEQVEAIKKISEYVAQLRRVGKGHGVWHFDQRLLHGVHGA
2 | – | 24 | Pea seed ferritin purified from pea seed milk boiled for 10 min (natural protein, modifications not checked) TTAPLTGVIFEPFEEVKKDYLAVPSVPLVSLARQNFADECESVINEQINVEYNASYVYHSLFAYFDRDNVALKGFAKFFKESSEEHREHAEKLMKYQNTRGGRVVLHPIKDVPSEFEHVEKGDALYAMELALSLEKLTNEKLLNVHSVAERNNDLEMTHFIEGEYLAEQVEAIKKISEYVAQLRRVGKGHGVWHFDQRLLHGVHGA
